The text below walks through data of IntAct's records for PubMed 23572552.

First the molecules themselves.
B1: Golgi resident protein GCP60 (Homo sapiens), Q9H3P7 (parent)
chain: MAAVLNAERLEVSVDGLTLSPDPEERPGAEGAPLLPPPLPPPSPPGSGRGPGASGEQPEPGEAAAGGAAEEARRLEQRWGFGLEELYGLALRFFKEKDGKAFHPTYEEKLKLVALHKQVLMGPYNPDTCPEVGFFDVLGNDRRREWAALGNMSKEDAMVEFVKLLNRCCHLFSTYVASHKIEKEEQEKKRKEEEERRRREEEERERLQKEEEKRRREEEERLRREEEERRRIEEERLRLEQQKQQIMAALNSQTAVQFQQYAAQQYPGNYEQQQILIRQLQEQHYQQYMQQLYQVQLAQQQAALQKQQEVVVAGSSLPTSSKVNATVPSNMMSVNGQAKTHTDSSEKELEPEAAEEALENGPKESLPVIAAPSMWTRPQIKDFKEKIQQDADSVITVGRGEVVTVRVPTHEEGSYLFWEFATDNYDIGFGVYFEWTDSPNTAVSVHVSESSDDDEEEEENIGCEEKAKKNANKPLLDEIVPVYRRDCHEEVYAGSHQYPGRGVYLLKFDNSYSLWRSKSVYYRVYYTR
partner: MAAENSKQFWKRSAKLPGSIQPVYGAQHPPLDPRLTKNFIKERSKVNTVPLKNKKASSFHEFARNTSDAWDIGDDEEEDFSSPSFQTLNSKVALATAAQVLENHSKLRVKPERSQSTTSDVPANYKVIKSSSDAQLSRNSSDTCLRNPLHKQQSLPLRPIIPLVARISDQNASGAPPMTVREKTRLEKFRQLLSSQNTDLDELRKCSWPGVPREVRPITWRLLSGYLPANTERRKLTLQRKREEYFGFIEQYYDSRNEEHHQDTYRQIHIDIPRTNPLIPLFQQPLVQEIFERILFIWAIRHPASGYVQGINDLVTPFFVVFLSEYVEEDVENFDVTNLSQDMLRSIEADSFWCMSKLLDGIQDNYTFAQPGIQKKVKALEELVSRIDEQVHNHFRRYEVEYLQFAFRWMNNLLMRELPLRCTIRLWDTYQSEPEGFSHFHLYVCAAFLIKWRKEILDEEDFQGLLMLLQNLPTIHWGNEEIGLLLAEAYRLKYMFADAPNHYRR
B2: TBC1 domain family member 22A (Homo sapiens), Q8WUA7 (parent)
chain: MASDGARKQFWKRSNSKLPGSIQHVYGAQHPPFDPLLHGTLLRSTAKMPTTPVKAKRVSTFQEFESNTSDAWDAGEDDDELLAMAAESLNSEVVMETANRVLRNHSQRQGRPTLQEGPGLQQKPRPEAEPPSPPSGDLRLVKSVSESHTSCPAESASDAAPLQRSQSLPHSATVTLGGTSDPSTLSSSALSEREASRLDKFKQLLAGPNTDLEELRRLSWSGIPKPVRPMTWKLLSGYLPANVDRRPATLQRKQKEYFAFIEHYYDSRNDEVHQDTYRQIHIDIPRMSPEALILQPKVTEIFERILFIWAIRHPASGYVQGINDLVTPFFVVFICEYIEAEEVDTVDVSGVPAEVLCNIEADTYWCMSKLLDGIQDNYTFAQPGIQMKVKMLEELVSRIDEQVHRHLDQHEVRYLQFAFRWMNNLLMREVPLRCTIRLWDTYQSEPDGFSHFHLYVCAAFLVRWRKEILEEKDFQELLLFLQNLPTAHWDDEDISLLLAEAYRLKFAFADAPNHYKK
B3: TBC1 domain family member 22B (Homo sapiens), Q9NU19 (parent)
chain: B1 partner

Variants of B1 are the subject of one assay. The settings on record: with tb22b_human TBC1D22B.
With H284A, the “effect of a mutation on the interaction” value was “disrupting interaction strength”.

E282A;Q283A;H284A;Y285A: the “effect of a mutation on the interaction” value is listed as “disrupting interaction strength”. With Y288A, the “effect of a mutation on the interaction” value was “disrupting interaction strength”. Take T254A: the “effect of a mutation on the interaction” value is listed as “with no effect”. Turning to Q259A, the “effect of a mutation on the interaction” value was “with no effect”.

Turning to Q253A, the “effect of a mutation on the interaction” value is listed as “with no effect”. In the case of I275A, the “effect of a mutation on the interaction” value was “with no effect”. In the case of Q244A, the “effect of a mutation on the interaction” value is “with no effect”. For the variant K243A, the “effect of a mutation on the interaction” value is on record as “with no effect”. Turning to L276A, the “effect of a mutation on the interaction” value is on record as “decreasing interaction strength”.

For S414A;Y415A;L416A, the “effect of a mutation on the interaction” value is on record as “with no effect”. On the same count and under the same terms, the same measure for Q260A: “with no effect”; for S344A;S345A: “with no effect”; for Q257A: “decreasing interaction strength”. Consider Q286A, for which the “effect of a mutation on the interaction” value is given as “with no effect”. On the same count and under the same terms, the same measure for S511A;Y512A;S513A: “with no effect”. On the same count and under the same terms, the same measure for Y285A: “decreasing interaction strength”; for F258A: “decreasing interaction strength”. As for Q287A, the “effect of a mutation on the interaction” value is reported as “with no effect”. As to Q264A;Q265A;Y266A, the “effect of a mutation on the interaction” value is “with no effect”. For Y261A, the “effect of a mutation on the interaction” value was “decreasing interaction strength”. On the same count and under the same terms, the same measure for Q245A: “with no effect”; for F433A;E434A;W435A: “with no effect”; for V256A;Q257A;F258A: “disrupting interaction strength”. Still for that read-out and setting: the same measure for S511A: “decreasing interaction strength”. F417A;W418A;E419A;F420A: the “effect of a mutation on the interaction” value is “with no effect”. G494A;S495A;H496A: the “effect of a mutation on the interaction” value was “with no effect”. Take I246A: the “effect of a mutation on the interaction” value was “decreasing interaction strength”.

The variants in a further assay derive from B1. The settings on record: with tb22b_human TBC1D22B. The source holds these as a separate data set.
For Q259A;Q260A;Y261A, the “effect of a mutation on the interaction” value is “with no effect”. As for P267A;G268A;N269A, the “effect of a mutation on the interaction” value is “disrupting interaction strength”.

A further assay covers variants of B2. The settings on record: with gcp60_human ACBD3, Q9H3P7.
For the variant N99A;R100A, the “effect of a mutation on the interaction” value is “with no effect”. On to N90A;S91A;E92A, for which the “effect of a mutation on the interaction” value is listed as “with no effect”.

For the variant V101A;L102A, the “effect of a mutation on the interaction” value was “disrupting interaction strength”. As to V93A;V94A;M95A;E96A, the “effect of a mutation on the interaction” value is listed as “decreasing interaction strength”. As for R103A;N104A;H105A, the “effect of a mutation on the interaction” value is reported as “with no effect”. For E96A;T97A, the “effect of a mutation on the interaction” value was “with no effect”. Consider E92A;V93A, for which the “effect of a mutation on the interaction” value is on record as “with no effect”.

The variants in the next assay derive from B2. The settings on record: with gcp60_human ACBD3, Q9H3P7. This is another data set of the same source.
Regarding S165E;S167E, the “effect of a mutation on the interaction” value is listed as “with no effect”.

S165A;S167A: the “effect of a mutation on the interaction” value was “with no effect”. Q107A;R108A;Q109A: the “effect of a mutation on the interaction” value is recorded as “with no effect”. In the case of Q320A, the “effect of a mutation on the interaction” value is “with no effect”.

S165E: the “effect of a mutation on the interaction” value is “with no effect”. With S165A, the “effect of a mutation on the interaction” value was “with no effect”. As to E87A;S88A;L89A, the “effect of a mutation on the interaction” value is “with no effect”. Turning to L81A;L82A, the “effect of a mutation on the interaction” value is listed as “with no effect”.

Regarding Q163A;R164A;S165A;Q166A, the “effect of a mutation on the interaction” value is given as “with no effect”. On to T149E;S150E, for which the “effect of a mutation on the interaction” value is on record as “decreasing interaction strength”. With S132A, the “effect of a mutation on the interaction” value is recorded as “decreasing interaction strength”. With S167E, the “effect of a mutation on the interaction” value was “with no effect”.

The next assay covers variants of B3. The settings on record: with gcp60_human ACBD3, Q9H3P7.
Regarding T143E, the “effect of a mutation on the interaction” value is recorded as “with no effect”. Regarding Q99A, the “effect of a mutation on the interaction” value is on record as “with no effect”. S140E;S141E: the “effect of a mutation on the interaction” value is on record as “with no effect”.

For the variant S58E, the “effect of a mutation on the interaction” value is on record as “with no effect”. As for V100A;L101A, the “effect of a mutation on the interaction” value was “disrupting interaction strength”. For S116E;T117E;T118E;S119E, the “effect of a mutation on the interaction” value is recorded as “with no effect”. Turning to S114E, the “effect of a mutation on the interaction” value was “with no effect”. Regarding K91A;V92A, the “effect of a mutation on the interaction” value was “with no effect”. Same read-out and setting: to S168E belongs “with no effect”.
